Test results reported in the supplement of paper PMC7125110.
± gives the standard error. This sample holds only a part of the variants without activity.

B1: glmS ribozyme (parent)
chain: AUAAAAGCGCCAGAACUACAGAAAUGUAGUUGACGAGGAGGAGGUUUAUCGAAUUUUCGGCGGAUGCCUCCAAA

What was measured:
Conditions in all cases: with glucosamine-6-phosphate
glucosamine-6-phosphate [1] = variants of: B1; assay: self-cleavage kobs at 640 uM GlcN6P; higher = faster cleavage; RNA array
Outline: (§1)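 Glucosamine-6-phosphate, from 40 μM to 10 mM in HEPES/KCl/Mg(OAc)2 buffer, was flowed over sequenced MiSeq chips carrying barcoded ribozyme variants transcribed in situ by E. coli RNA polymerase. A hybridised Cy3 probe tracked the variants at 37 °C as tiles were imaged over ~14 h. kobs, kcat and KM were obtained by fitting normalised per-tile medians to exponential decays and then applying weighted Michaelis–Menten fits across concentrations.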

glucosamine-6-phosphate [2] = variants of: B1; assay: self-cleavage kobs at 2500 uM GlcN6P; higher = faster cleavage; RNA array
Outline: as §1

glucosamine-6-phosphate [3] = variants of: B1; assay: self-cleavage kobs at 10000 uM GlcN6P; higher = faster cleavage; RNA array
Outline: as §1

AUAAAAGCGCCAGAACUACAGAAAUGUAGUUGACGAGGAGGAGAUUUAUUGAAUUUUCGGCGGAUGUCUCCAAA
self-cleavage kobs at 640 uM GlcN6P (glucosamine-6-phosphate [1]): < 1e-05 s⁻¹

AUAAAAGCGCCAGCGCUACAGAAAUGUAGUUGACGAGGAGGAGGUUUAUCGAAUUUUCGGCGGAUGCCACCAAA
self-cleavage kobs at 640 uM GlcN6P (glucosamine-6-phosphate [1]): 9.09e-05 ± 2.4e-05 s⁻¹ | self-cleavage kobs at 2500 uM GlcN6P (glucosamine-6-phosphate [2]): 0.000115 ± 2.7e-05 s⁻¹

AUAAAAGCGCCAGAACUACAGAAAUGUAGUUGACUAGGACGAGGUUUACCAAAUUUUCGGCGGAUGCCUCCAAA
self-cleavage kobs at 640 uM GlcN6P (glucosamine-6-phosphate [1]): < 1e-05 s⁻¹

AUAAAAGCGCCAGAACUACAGAAAUGUAGUUGACGAGGCGGAGGUUUAUCGAAUUUUGGGCGGAUGGCUCGAAA
self-cleavage kobs at 640 uM GlcN6P (glucosamine-6-phosphate [1]): < 1e-05 s⁻¹

AUAAAAGCGCCAGAACUACAGAAAUGUAGUUGGCGAGGAGGAGGUUUCUCGAAUUUUCGGCGGAUGCUUCCAAA
self-cleavage kobs at 640 uM GlcN6P (glucosamine-6-phosphate [1]): < 1e-05 s⁻¹

AUAAAAGCAGCAGAACUACAGAAAUGUAUUUGACGAGGAGGAGGUUUAUCGAAUUUUCGGCAGAUGCCUCCAAA
self-cleavage kobs at 640 uM GlcN6P (glucosamine-6-phosphate [1]): < 1e-05 s⁻¹

AUAAAAGCGCCAGGACUACAGAAAUGUAGUUCACGAGGAGGAGGUUUAUCGAAUUUUCGGCGCAUUCCGCCAAA
self-cleavage kobs at 640 uM GlcN6P (glucosamine-6-phosphate [1]): < 1e-05 s⁻¹ | self-cleavage kobs at 2500 uM GlcN6P (glucosamine-6-phosphate [2]): < 1e-05 s⁻¹

AUAAAAGCGCCAGAACUACAGACAUGUAGUUGACGAGGAGGAGGUUUAUCGAAUUUUCGGCGGAUGCUUCCAAA
self-cleavage kobs at 640 uM GlcN6P (glucosamine-6-phosphate [1]): 0.00205 ± 0.00047 s⁻¹ | self-cleavage kobs at 2500 uM GlcN6P (glucosamine-6-phosphate [2]): 0.00111 ± 0.00026 s⁻¹

AUAAAAGCGCCAGAAUUACAGAAAUGUAGUUGACGAGGGAGGAGGUUAUCGAAUUUUCGGCGGAUGCCUCCAAA
self-cleavage kobs at 640 uM GlcN6P (glucosamine-6-phosphate [1]): 0.00638 ± 0.0016 s⁻¹ | self-cleavage kobs at 2500 uM GlcN6P (glucosamine-6-phosphate [2]): 0.0072 ± 0.0024 s⁻¹

AUAAAAGCGCCAGAAUUACAGAAAUGUAGUUGACGAGGUGGAGGUUUAUCGAAUUUUCGGCGGAUUCCUCCAAA
self-cleavage kobs at 640 uM GlcN6P (glucosamine-6-phosphate [1]): 0.000779 ± 0.00014 s⁻¹ | self-cleavage kobs at 2500 uM GlcN6P (glucosamine-6-phosphate [2]): 0.00146 ± 0.00036 s⁻¹

AUAAAAGCGACCGAACUACAGAAAUGUAGUUGACGAGGAGGAGGUUUAUCGAAUUUUCGGCGGAUUCCUCCAAA
self-cleavage kobs at 640 uM GlcN6P (glucosamine-6-phosphate [1]): < 1e-05 s⁻¹ | self-cleavage kobs at 2500 uM GlcN6P (glucosamine-6-phosphate [2]): < 1e-05 s⁻¹

AUAAAAGCGCCAGAACUACAGAAAUGUAGAUGACGAGGAGGAGGUUUAUCGAAUGUUCGGUGGAUGCCUCCAAA
self-cleavage kobs at 640 uM GlcN6P (glucosamine-6-phosphate [1]): < 1e-05 s⁻¹ | self-cleavage kobs at 10000 uM GlcN6P (glucosamine-6-phosphate [3]): < 1e-05 s⁻¹

AUAAAAGCGCCAGAAAUACAGAAAUGUAGUUAACGAGGAGGAGGUUUAUCGAAUUUUCGGCGGAUGCCUGCAAA
self-cleavage kobs at 640 uM GlcN6P (glucosamine-6-phosphate [1]): 7.42e-05 ± 3e-05 s⁻¹ | self-cleavage kobs at 10000 uM GlcN6P (glucosamine-6-phosphate [3]): 0.000127 ± 3.4e-05 s⁻¹

AUAAAAGCGCAAGAAAUACAGAAAUGUAGUUGACGAGGAGGAGGUUUAUGGAAUUUUCGGCGGAUGCCUCCAAA
self-cleavage kobs at 640 uM GlcN6P (glucosamine-6-phosphate [1]): 0.000146 ± 4.5e-05 s⁻¹ | self-cleavage kobs at 2500 uM GlcN6P (glucosamine-6-phosphate [2]): 8e-05 ± 2.7e-05 s⁻¹

AUAAAGACGCCAUACCUACAGAAAUGUAGUUGACGAGGAGGAGGUUUAUCGAAUUUUCGGCGGAUGCAUACAAA
self-cleavage kobs at 640 uM GlcN6P (glucosamine-6-phosphate [1]): < 1e-05 s⁻¹

AUAAAAGCGCCAGAACUACAGAAAUGUAAUUGACGAGGAGGAGUUUUAUCGAAUUUUCGGCGGACGCCUCCAAA
self-cleavage kobs at 640 uM GlcN6P (glucosamine-6-phosphate [1]): < 1e-05 s⁻¹ | self-cleavage kobs at 2500 uM GlcN6P (glucosamine-6-phosphate [2]): < 1e-05 s⁻¹

AUAAAAGCGCCAGAACUACAGAAAUGUAGUUGACGAAGAGAAGGUUUGUCGAAUUUUCGGCGGAUGCCUCCAAA
self-cleavage kobs at 640 uM GlcN6P (glucosamine-6-phosphate [1]): < 1e-05 s⁻¹ | self-cleavage kobs at 2500 uM GlcN6P (glucosamine-6-phosphate [2]): < 1e-05 s⁻¹

AUAAAGGCGCCAGAACUACAGAAAUGUAGUCGACGAGGAGGAGGUUUAUCGAAUUUUCAGCGGAUGCCUCCAAA
self-cleavage kobs at 640 uM GlcN6P (glucosamine-6-phosphate [1]): < 1e-05 s⁻¹

AUAAAAGCGCCAGAAUUACAGAAAUGUAGUUGCCGAGGAGGAGGUUUAUCGAAUUUUCGGCGGAUGCCUCCAAA
self-cleavage kobs at 640 uM GlcN6P (glucosamine-6-phosphate [1]): 9.7e-05 ± 3.1e-05 s⁻¹ | self-cleavage kobs at 2500 uM GlcN6P (glucosamine-6-phosphate [2]): 8.5e-05 ± 2.1e-05 s⁻¹ | self-cleavage kobs at 10000 uM GlcN6P (glucosamine-6-phosphate [3]): 0.000247 ± 3.7e-05 s⁻¹

AUAAAAGCGCCCGAACUACAGAAAUGUAGUUGCCGAGGAUGAGGUUUAUCGAAUUUUCGGCGUAUGCUUCCAAA
self-cleavage kobs at 640 uM GlcN6P (glucosamine-6-phosphate [1]): < 1e-05 s⁻¹ | self-cleavage kobs at 2500 uM GlcN6P (glucosamine-6-phosphate [2]): < 1e-05 s⁻¹

AUAAAAGCGCCAGAACUACAGAAAUGUAGUUGACGAUGAGGAGGUUUAUCAAAUUUUCGGCGGAUCCCUCCAAA
self-cleavage kobs at 640 uM GlcN6P (glucosamine-6-phosphate [1]): < 1e-05 s⁻¹

AUAAAAGCGCCAGAACUACAGAAAUGUACGUGUCGAGGAGGAGGUUUAUCGAAUUUUUGGCGGAUGCCUCCAAA
self-cleavage kobs at 640 uM GlcN6P (glucosamine-6-phosphate [1]): < 1e-05 s⁻¹ | self-cleavage kobs at 2500 uM GlcN6P (glucosamine-6-phosphate [2]): < 1e-05 s⁻¹

AUAAAAGCGCGAGAACUACAGAAAUGUAGUUGACGAGGAGCAGGGUUAUCGAAUUUUCGGCGGAUGCCUCCAAA
self-cleavage kobs at 640 uM GlcN6P (glucosamine-6-phosphate [1]): < 1e-05 s⁻¹
